Laboratory results taken from IntAct's records for PubMed 24704786.

B1: Interferon alpha/beta receptor 1 (Homo sapiens), P17181-1 (parent)
chain: MMVVLLGATTLVLVAVAPWVLSAAAGGKNLKSPQKVEVDIIDDNFILRWNRSDESVGNVTFSFDYQKTGMDNWIKLSGCQNITSTKCNFSSLKLNVYEEIKLRIRAEKENTSSWYEVDSFTPFRKAQIGPPEVHLEAEDKAIVIHISPGTKDSVMWALDGLSFTYSLVIWKNSSGVEERIENIYSRHKIYKLSPETTYCLKVKAALLTSWKIGVYSPVHCIKTTVENELPPPENIEVSVQNQNYVLKWDYTYANMTFQVQWLHAFLKRNPGNHLYKWKQIPDCENVKTTQCVFPQNVFQKGIYLLRVQASDGNNTSFWSEEIKFDTEIQAFLLPPVFNIRSLSDSFHIYIGAPKQSGNTPVIQDYPLIYEIIFWENTSNAERKIIEKKTDVTVPNLKPLTVYCVKARAHTMDEKLNKSSVFSDAVCEKTKPGNTSKIWLIVGICIALFALPFVIYAAKVFLRCINYVFFPSLKPSSSIDEYFSEQPLKNLLLSTSEEQIEKCFIIENISTIATVEETNQTDEDHKKYSSQTSQDSGNYSNEDESESKTSEELQQDFV

Variants of: B1
Details: with tyk2_human TYK2, P29597
Sequence of tyk2_human TYK2, P29597 (P29597 whole entry): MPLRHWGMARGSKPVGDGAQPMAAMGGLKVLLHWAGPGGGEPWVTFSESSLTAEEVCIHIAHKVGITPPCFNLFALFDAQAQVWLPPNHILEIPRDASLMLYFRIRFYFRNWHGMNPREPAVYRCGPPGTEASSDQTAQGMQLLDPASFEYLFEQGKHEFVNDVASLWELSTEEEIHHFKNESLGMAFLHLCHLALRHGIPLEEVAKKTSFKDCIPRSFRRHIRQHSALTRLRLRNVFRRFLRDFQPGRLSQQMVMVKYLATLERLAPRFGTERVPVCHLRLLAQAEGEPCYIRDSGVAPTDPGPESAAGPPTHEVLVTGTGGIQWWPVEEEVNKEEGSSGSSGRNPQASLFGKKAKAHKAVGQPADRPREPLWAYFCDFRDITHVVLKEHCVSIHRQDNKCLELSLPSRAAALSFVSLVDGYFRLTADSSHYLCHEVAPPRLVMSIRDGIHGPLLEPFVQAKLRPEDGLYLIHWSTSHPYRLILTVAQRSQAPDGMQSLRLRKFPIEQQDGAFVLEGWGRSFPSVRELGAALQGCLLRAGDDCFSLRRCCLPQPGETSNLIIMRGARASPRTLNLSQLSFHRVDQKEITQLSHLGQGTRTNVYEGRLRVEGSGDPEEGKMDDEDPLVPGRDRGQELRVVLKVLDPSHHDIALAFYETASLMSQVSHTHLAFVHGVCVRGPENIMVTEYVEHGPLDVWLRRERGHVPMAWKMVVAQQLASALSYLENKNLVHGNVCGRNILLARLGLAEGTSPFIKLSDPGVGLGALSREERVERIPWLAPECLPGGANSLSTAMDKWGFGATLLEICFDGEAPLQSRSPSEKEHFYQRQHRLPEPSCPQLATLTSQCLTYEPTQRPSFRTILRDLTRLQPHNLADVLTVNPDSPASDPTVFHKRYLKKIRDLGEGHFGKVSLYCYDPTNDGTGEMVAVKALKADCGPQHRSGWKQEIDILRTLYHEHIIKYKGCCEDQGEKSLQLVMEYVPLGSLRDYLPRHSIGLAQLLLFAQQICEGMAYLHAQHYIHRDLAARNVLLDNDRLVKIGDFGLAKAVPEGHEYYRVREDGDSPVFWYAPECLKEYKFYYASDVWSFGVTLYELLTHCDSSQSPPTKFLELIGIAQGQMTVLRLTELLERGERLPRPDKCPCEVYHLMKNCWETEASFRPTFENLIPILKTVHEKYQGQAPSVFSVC

Q: For MMVVLLGATTLVLVAVAPWVLSAAAGGKNLKSPQKVEVDIIDDNFILRWNRSDESVGNVTFSFDYQKTGMDNWIKLSGCQNITSTKCNFSSLKLNVYEEIKLRIRAEKENTSSWYEVDSFTPFRKAQIGPPEVHLEAEDKAIVIHISPGTKDSVMWALDGLSFTYSLVIWKNSSGVEERIENIYSRHKIYKLSPETTYCLKVKAALLTSWKIGVYSPVHCIKTTVENELPPPENIEVSVQNQNYVLKWDYTYANMTFQVQWLHAFLKRNPGNHLYKWKQIPDCENVKTTQCVFPQNVFQKGIYLLRVQASDGNNTSFWSEEIKFDTEIQAFLLPPVFNIRSLSDSFHIYIGAPKQSGNTPVIQDYPLIYEIIFWENTSNAERKIIEKKTDVTVPNLKPLTVYCVKARAHTMDEKLNKSSVFSDAVCEKTKPGNTSKIWLIVGICIALFALPFVIYAAKVFLRCINYVFFPSLKPSSSIDEYFSEQPLKNLLLSTSEAQIEKCFIIENISTIATVEETNQTDEDHKKYSSQTSQDSGNYSNEDESESKTSEELQQDFV [E497A], which “effect of a mutation on the interaction” value is on record?
A: disrupting interaction strength
